# “Also recorded” adds a separate entry of the source. Non-standard residues stand in square brackets, D forms with d. No end group written: not given here.
# Key:
# [1] = target: T1, A-beta1-42 (Homo sapiens, UniProt P05067); assay: Density gradient centrifugation (iodixanol): modulation of A-beta1-42 aggregation behavior; format: biochemical; details: for Effect on A-beta aggregation (distribution of A-beta over gradient fractions): 80 μM A-beta1-42, 20 μM peptide, 259,000×g, 3 h, 4° C., SDS-PAGE, silver staining; for Peptide bound in fraction 12 [%]: FITC-labelled peptide, amount of dye in fraction 12 of the iodixanol gradient, estimate of binding to / precipitation of A-beta oligomers
# T1 construct: overlayed with 100 μl of a 80 μM A-beta1-42 solution
# Source text: The effects of the peptides described in the table on A-beta aggregation were investigated by means of density gradient centrifugation. Thus, A-beta was mixed with the respective peptide and the particles formed are separated according to size. The sample to be investigated was placed on the surface of the centrifuge tube in which a density gradient was charged, which consisted of layers of different iodixanol concentrations in this example. During the several hours of separation, the molecules sediment at different rates in the solvent, namely, more rapidly the larger the particles. The centrifugation is terminated at a suitable time point and different constituents of the sample are obtained in the various layers which are analyzed by SDS-PAGE. A-beta without addition of peptide served as control.
# This changes on addition of RD2. […] Large aggregates are formed which are detectable in fractions 10-15. […] All D-enantiomeric peptides which were characterized with A-beta using the method mentioned above were labelled with FITC. The amount of dye detectable in fraction 12 was used to estimate the binding strength of the respective D3 derivative to A-beta oligomers or the oligomer precipitating effects thereof in vitro. It was shown that the peptide RD2 especially has a significant effect on A-beta aggregation compared to D3.
# FIG. 1: Modulation of the A-beta1-42 aggregation behavior by RD2, analzyed by an iodixanol density gradient. The iodixanol gradient was overlayed with 100 μl of a 80 μM A-beta1-42 solution and 100 μl of a 80 μM A-beta and 20 μM RD2 mixture. The mixture was then centrifuged at 259,000×g for 3 h at 4° C. The 15 fractions (fraction 15 is the pellet boiled with the loading buffer) were harvested manually immediately after the centrifugation and analyzed by Tris-Tricin-SDS-PAGE followed by silver staining.
# [2] = target: A-beta oligomers (Homo sapiens, UniProt P05067); details: D3 in higher concentrations (than 20 μM); cited from earlier work
# Chain of A-beta oligomers (P05067 672-713 limits assumed): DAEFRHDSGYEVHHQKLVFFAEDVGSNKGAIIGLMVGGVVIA
# T1 sequence (P05067 672-713): as the sequence (P05067 672-713 limits assumed) above
Substance,Effect on A-beta aggregation (distribution of A-beta over gradient fractions) [1],Peptide bound in fraction 12 [%] [1] [%],Precipitation of A-beta oligomers [2]
"rprtrlhthrnr ([dR][dP][dR][dT][dR][dL][dH][dT][dH][dR][dN][dR]) [Peptide D3, D-enantiomeric D-peptide D3, parent peptide used as comparison, reference compound]",no change was apparent; also recorded: no effect,4,"precipitates A-beta oligomers and converts them into large, amorphous and non-toxic aggregates"
"rprtrlrnr ([dR][dP][dR][dT][dR][dL][dR][dN][dR]) [Peptide D3Δhth, D3 with deletion hth]",,2,
"rprtrl ([dR][dP][dR][dT][dR][dL]) [NT-D3, D3 derivative, D3-N-Terminus]",,0,
"rrptlrhthnrr ([dR][dR][dP][dT][dL][dR][dH][dT][dH][dN][dR][dR]) [RD3, D3 derivative, rational D3]",,4,
"ptlhthnrrrrr ([dP][dT][dL][dH][dT][dH][dN][dR][dR][dR][dR][dR]) [RD2, D3 derivative, rational D3]",fewer A-beta oligomers could be detected in the fractions 3-9,20,
"pnhhrrrrrttl ([dP][dN][dH][dH][dR][dR][dR][dR][dR][dT][dT][dL]) [RD1, D3 derivative, rational D3]",,3,
